{
  "source": "patent US20260242721A1",
  "about": "“A SYNTHETIC CELLULAR ADVANCED SIGNAL ADAPTER (SCASA) SYSTEM” (Danmarks Tekniske Universitet, priority 2023, published 2026)",
  "molecules": {"B1": {"name": "PFUS1: pheromone-responsive Saccharomyces cerevisiae promoter, SEQ ID NO: 8, processing module (yEGFP strain DIX24, CD19 strain DIX45) (nucleic acid, listed as Saccharomyces cerevisiae)", "DNA": "TAATAATCAGAACTCCAACAATAGTCAACAGGGCTATAACCAATCCTATCAAAACGGTAACCAAAATAGTCAAGGTTACAATAATCAACAGTACCAAGGTGGCAACGGTGGTTACCAACAACAACAGGGACAATCTGGTGGTGCTTTTTCCTCATTGGCCTCCATGGCTCAATCTTACTTAGGTGGTGGACAAACTCAATCCAACCAACAGCAATACAATCAACAAGGCCAAAACAACCAGCAGCAATACCAGCAACAAGGCCAAAACTATCAGCATCAACAACAGGGTCAGCAGCAGCAACAAGGCCACTCCAGTTCATTCTCAGCTTTGGCTTCCATGGCAAGTTCCTACCTGGGCAATAACTCCAATTCAAATTCGAGTTATGGGGGCCAGCAACAGGCTAATGAGTATGGTAGACCGCAACAGAATGGTCAACAGCAATCCAATGAGTACGGAAGACCGCAATACGGCGGAAACCAGAACTCCAATGGACAGCACGAATCCTTCAATTTTTCTGGCAACTTTTCTCAACAGAACAATAACGGCAACCAGAACCGCTACTGAACGATGATTCAGTTCGCCTTCTATCCTTTGTTTACGTATTTGTTTATATATATAACTTTATTTTTTTTTATTAATTGGGCTGCAAGACAATTTTGTTGTCAGTGATGCCTCAATCCTTCTTTTGCTTCCATATTTACCATGTGGACCCTTTCAAAACAGAGTTGTATCTCTGCAGGATGCCCTTTTTGACGTATTGAATGGCATAATTGCACTGTCACTTTTCGCGCTGTCTCATTTTGGTGCGATGATGAAACAAACATGAAACGTCTGTAATTTGAAACAAATAACGTAATTCTCGGGATTGGTTTTATTTAAATGACAATGTAAGAGTGGCTTTGTAAGGTATGTGTTGCTCTTAAAATATTTGGATACGACATCCTTTATCTTTTTTCCTTTAAGAGCAGGATATAAGCCATCAAGTTTCTGAAAATCAAA"}, "B2": {"name": "PTDH3: constitutive Saccharomyces cerevisiae promoter, SEQ ID NO: 10, processing module (DIX28, DIX49) (nucleic acid, listed as Saccharomyces cerevisiae)", "DNA": "CTATTTTCGAGGACCTTGTCACCTTGAGCCCAAGAGAGCCAAGATTTAAATTTTCCTATGACTTGATGCAAATTCCCAAAGCTAATAACATGCAAGACACGTACGGTCAAGAAGACATATTTGACCTCTTAACAGGTTCAGACGCGACTGCCTCATCAGTAAGACCCGTTGAAAAGAACTTACCTGAAAAAAACGAATATATACTAGCGTTGAATGTTAGCGTCAACAACAAGAAGTTTAATGACGCGGAGGCCAAGGCAAAAAGATTCCTTGATTACGTAAGGGAGTTAGAATCATTTTGAATAAAAAACACGCTTTTTCAGTTCGAGTTTATCATTATCAATACTGCCATTTCAAAGAATACGTAAATAATTAATAGTAGTGATTTTCCTAACTTTATTTAGTCAAAAAATTAGCCTTTTAATTCTGCTGTAACCCGTACATGCCCAAAATAGGGGGCGGGTTACACAGAATATATAACATCGTAGGTGTCTGGGTGAACAGTTTATTCCTGGCATCCACTAAATATAATGGAGCCCGCTTTTTAAGCTGGCATCCAGAAAAAAAAAGAATCCCAGCACCAAAATATTGTTTTCTTCACCAACCATCAGTTCATAGGTCCATTCTCTTAGCGCAACTACAGAGAACAGGGGCACAAACAGGCAAAAAACGGGCACAACCTCAATGGAGTGATGCAACCTGCCTGGAGTAAATGATGACACAAGGCAATTGACCCACGCATGTATCTATCTCATTTTCTTACACCTTCTATTACCTTCTGCTCTCTCTGATTTGGAAAAAGCTGAAAAAAAAGGTTGAAACCAGTTCCCTGAAATTATTCCCCTACTTGACTAATAAGTATATAAAGACGGTAGGTATTGATTGTAATTCTGTAAATCTATTTCTTAAACTTCTTAAATTCTACTTTTATAGTTAGTCTTTTTTTTAGTTTTAAAACACCAAGAACTTAGTTTCGAATAAACACACATAAACAAACAAA"}},
  "key": {"[1]": {"test_system": "pheromone response pathway (PRP)", "description": "To investigate the dose-response features of the selected promoters PMFA2, PFUS1, PAGA2, PFIG.1, PMFA1, PYCL076W, PHPF1, PIME4, PCSS1, PTDH3, PPGK1 and P6XLexOLEU2 upon GPCR stimulation the strains were pre-grown in SC (24 hrs.), whereafter, for each replicate, cells were transferred to 200 μL volumes comprising a 10-fold dilution series of α-factor (0-100 μM) (GenScript) dissolved in SC+1% DMSO, and stimulated for 5 hrs. (30° C., 250 r.p.m.). Flow cytometric measurement was done to quantify yEGFP levels (B525/45-A) and PRP-regulated morphological changes, denoted shmooing (SSC-A) using a NovoCyte Quanteon flow cytometer (Agilent). Data represents means of median fluorescence intensity (mMFI) for three biological replicates and standard deviations hereof. Two-way ANOVA with Tukey's multiple comparisons test was conducted for all conditions."}, "[2]": {"target": "T1, Saccharomyces cerevisiae α-factor pheromone receptor (Ste2) (Saccharomyces cerevisiae) (UniProt D6VTK4)", "T1 sequence": "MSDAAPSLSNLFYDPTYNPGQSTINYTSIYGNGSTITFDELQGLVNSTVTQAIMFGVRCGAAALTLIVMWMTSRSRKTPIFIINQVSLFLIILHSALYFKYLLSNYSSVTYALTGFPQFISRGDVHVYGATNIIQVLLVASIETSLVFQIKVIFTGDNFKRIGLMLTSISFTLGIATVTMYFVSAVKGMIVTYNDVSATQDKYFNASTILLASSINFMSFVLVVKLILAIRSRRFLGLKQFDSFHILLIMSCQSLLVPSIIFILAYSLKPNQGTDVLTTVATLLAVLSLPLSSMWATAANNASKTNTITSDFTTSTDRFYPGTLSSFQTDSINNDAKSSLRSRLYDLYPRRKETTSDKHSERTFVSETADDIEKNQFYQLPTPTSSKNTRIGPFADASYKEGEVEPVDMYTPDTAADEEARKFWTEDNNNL", "assay": "cell-based or functional assay"}, "CD19": {"test_system": "CD19", "assay": "Yeast surface display (YSD) of CD19, antibody staining and flow cytometry", "type": "cell-based, Saccharomyces cerevisiae", "conditions": "for fold upregulation of CD19 display relative to unstimulated condition: α-factor 0-100 μM, 20 hrs, promoter driving CD19 in DIX41 background", "description": "To investigate the different variants of CD19 modules, yeast cells were grown and, in some cases, stimulated to present CD19 differentially, whereafter they were stained with antibodies and assessed by flow cytometry. Flow cytometric measurement was done using a NovoCyte Quanteon flow cytometer (Agilent) to quantify CD19 by staining with mouse anti-CD19 (FMC63) (Absolute Antibody; Ab00613) and goat anti-mouse-AF647 (polyclonal) (Thermo Fisher; A-21236), detected in R667/30-H, as well as rabbit anti-HA (RM305) (Thermo Fisher; MA5-27915) and goat anti-rabbit-AF488 (polyclonal) (Thermo Fisher; A-11008), detected in B525/45-H (see FIG. 7), and to measure PRP-regulated morphological changes (SSC-H). […] Data represents means of median fluorescence intensity (mMFI) for three biological replicates and standard deviations hereof. Two-way ANOVA with multiple comparisons tests was conducted for all conditions. Histograms are representative replicates. No SSC-normalization was used in the evaluation of the effector module, unlike in Example 1, as it is the absolute response of all effects combined that constitute the total output that CAR T cells interpret and react to.\nFor conventional YSD using strain EBY100 and pCT-plasmid-based expression (Chao et al. 2006, Isolating and engineering human antibodies using yeast surface display. Nature Protocols, 1(2), 755-768), strains were pre-grown in SC −trp, then transferred to 5 mL SC −trp +2% Gal for induction of YSD or +2% Gluc as a negative control (24 hrs., 30° C., 250 r.p.m.). NALM6 was cultured in RPMI 1640 medium (ATCC modification) (Thermo Fisher) with 10% fetal bovine serum and 1% pen-strep (RPMI+10% FBS) at 37° C. with 5% CO2. For the investigation of PGAL1-titratability of DIX41 with pMAD58 and DIX74, strains were pre-grown in SC −ura and SC, respectively, then transferred to SC −ura and SC, respectively, with varying concentrations of galactose (0.0002%-2% Gal), using raffinose as compensating carbon source, and YSD was induced for 24 hrs. (30° C., 250 r.p.m.). Strains were similarly grown in 2% Gluc as negative controls. For the investigation of the strain library with constitutive and dynamically regulated expression of CD19 (Background strain/No YSD, PPGK1-Empty, PMFA2-CD19, PFUS1-CD19, PFIG.1-CD19, PMFA1-CD19, PHPF1-CD19, PTDH3-CD19, PPGK1-CD19) the strains were pre-grown in SC, whereafter, for each replicate, 50.000 cells were transferred to 300 μL volumes comprising a 10-fold dilution series of α-factor (0-100 μM) (GenScript) dissolved in SC+1% DMSO, and stimulated for 20 hrs. (30° C., 250 r.p.m.)."}},
  "data": [
    {"molecule": "α-factor [reference compound]", "values": [
      {"measurement": "α-factor concentration at which shmooing (SSC-A) was most intense", "setting": "[1]; across all strains, 5 hrs", "result": "≥ 0.01", "unit": "µM"},
      {"measurement": "α-factor concentration at which shmooing generally peaked", "setting": "[1]; across all strains, 5 hrs", "result": 1, "unit": "µM"}
    ]},
    {"molecule": "α-factor (GenScript) (from UniProt P01149 90-102) (peptide)", "values": [
      {"measurement": "fold change of induction of yEGFP, SSC-normalized, promoter PFIG1, maximum at 100 µM α-factor", "setting": "[2]", "result": 129, "unit": "fold"},
      {"measurement": "fold change of induction of yEGFP, SSC-normalized, promoter PHPF1", "setting": "[2]", "result": 0.62, "unit": "fold"},
      {"measurement": "fold change of yEGFP, unnormalized, promoter PFIG1, 1 µM α-factor", "setting": "[2]", "result": 517, "unit": "fold"},
      {"measurement": "fold change of yEGFP, unnormalized, promoter PFIG1, 100 µM α-factor", "setting": "[2]", "result": 483, "unit": "fold"},
      {"measurement": "fold upregulation of CD19 display, promoter PFIG1, 20 hrs α-factor", "setting": "[2]", "result": 630, "unit": "fold"},
      {"measurement": "fold upregulation of CD19 display, promoter PFUS1, 20 hrs α-factor", "setting": "[2]", "result": 774, "unit": "fold"},
      {"measurement": "fold upregulation of CD19 display, promoter PTDH3", "setting": "[2]", "result": 3.1, "unit": "fold"},
      {"measurement": "general PRP-induced expression boost of yEGFP after 5 hrs of GPCR stimulation", "setting": "[2]", "result": 4.01, "unit": "fold"},
      {"measurement": "maximal fold change of CD19 display, promoters PHPF1, PTDH3 and PPGK1, lower end", "setting": "[2]", "result": "2.9 to 3.8", "unit": "fold"},
      {"measurement": "maximal fold change of CD19 display, promoters PHPF1, PTDH3 and PPGK1, upper end", "setting": "[2]", "result": "2.9 to 3.8", "unit": "fold"}
    ]},
    {"molecule": "B1", "values": [
      {"measurement": "CD19 level at unstimulated conditions", "setting": "CD19; no GPCR stimulation", "result": "extremely low levels of CD19 at the limit of detection"},
      {"measurement": "fold upregulation of CD19 display relative to unstimulated condition", "setting": "CD19", "result": "774±165", "unit": "fold"},
      {"measurement": "maximal absolute yEGFP output relative to orthogonal P6xLexOLEU2 ste12Δ0 strain", "setting": "[1]; PFUS1 STE12+ strain", "result": 4.2, "unit": "fold"},
      {"measurement": "promoter strength relative to P6xLexOLEU2 at maximal induction", "setting": "[1]; SSC-normalized promoter activity", "result": 1.4, "unit": "fold"}
    ]},
    {"molecule": "B2", "values": [
      {"measurement": "fold upregulation of CD19 display relative to unstimulated condition", "setting": "CD19", "result": "3.1±0.3", "unit": "fold"},
      {"measurement": "change of absolute CD19 output on upregulation compared with that of PFUS1", "setting": "CD19; α-factor stimulation", "result": 150.2, "unit": "%"}
    ]}
  ]
}
